# Measured values: US20250073303A1, “TDP-43 Interference Peptides, Methods, and Uses Thereof” (The University of British Columbia, priority 2022, published 2025)
# Key:
# TDP-43 [1] = target: T1, TDP-43 (Mus musculus, UniProt Q921F2); experiment: Sodium arsenite induced TDP-43 and phosphoTDP43 aggregates in HL-1 cells; type: cell-based; design: endogenous in cells; host or cells: HL-1 cells (cardiomyocytes); settings: 0.05 mM sodium arsenite 16 hours
# Method: FIG. 12. Example peptide D reduces TDP-43 and phosphoTDP43 aggregates in HL-1 cells following sodium arsenite treatment. Western blot analysis of protein expression (TDP-43, phosphoTDP-43, PARP and actin) in either soluble or insoluble fractions of HL-1 cells with 16 h treatment of sodium arsenite (0.05 mM).
# In order to evaluate the function of example peptide D on alleviation of TDP-43 proteinopathies in cardiomyocytes, 0.05 mM of sodium arsenite was employed to treat HL-1 cells for 16 hours to induce TDP-43 and phosphoTDP43 aggregates. […] 20 μM of peptide D treatment in HL-1 cells under the same treatment conditions reduced insoluble aggregates of TDP-43 and phosphoTDP-43.
# TDP-43 [2] = target: T1, TDP-43; experiment: LPS (5 mg/kg) plus sciatic nerve axotomy in mice: TDP-43 and phosphoTDP-43 aggregates; type: in vivo; design: from tissue; host or cells: ventral lumbosacral spinal cord of mice, axotomy side; settings: LPS 5 mg/kg i.p. plus axotomy, day 3 post-surgery, 10 and 20 mg/kg once daily i.p.
# Method: FIG. 13: Example peptide D dose dependently reduces TDP-43 and phosphoTDP-43 aggregates in lumbar spinal cord of mice with LPS plus sciatic nerve axotomy. Western blot analysis of TDP-43 and phosphoTDP-43 expression in the soluble and insoluble fraction of ipsilateral lumbar spinal cord tissue that was collected in mice three days post LPS (5 mg/kg) plus sciatic nerve axotomy procedure. Group 1: Non-surgical mice. Group 2: Control mice with LPS plus sciatic nerve axotomy. Group 3: 10 mg/kg of peptide D treatment (once daily, i.p.) in mice with LPS treatment plus sciatic nerve axotomy. Group 4: 20 mg/kg of peptide D treatment (once daily, i.p.) in mice with LPS treatment plus sciatic nerve axotomy.
# This mouse model was further optimized by adding one dose of lipopolysaccharide (LPS) injection (5 mg/kg, i.p.) when performing surgery. LPS injection aggravated the observed TDP-43 proteinopathy as assessed at day 3 post-surgery.
# TDP-43 [3] = target: TDP-43 (Homo sapiens, UniProt Q13148); experiment: Sodium arsenite induced TDP-43 and phosphoTDP-43 accumulation and PARP cleavage in SH-SY5Y cells; type: cell-based; settings: 1 mM sodium arsenite for 3 hours
# Method: FIG. 5. Synthetic peptides derived from CK-1δ block TDP-43 phosphorylation, aggregation and partially rescue cell death in different cellular models. […] DAPI (Blue) staining was used to determine nuclear localization. […] Representative immunoblots showing efficient siRNA knockdown of CK-1δ in SH-SY5Y cells. […] (C) Representative immunoblots showing effective blocking of TDP-43 phosphorylation and aggregation by 20 μM peptide mixture in SH-SY5Y cells, but not in HEK293 cells with ethacrynic acid (EA) treatment. (D) Dose response of peptide mixture on blocking TDP-43 aggregation in primary cultured neurons treated with 20 μM ethacrynic acid. Quantification of insoluble TDP-43 expression was shown on the right. […] The significance among the groups was calculated by one-way ANOVA, *p<0.05. The statistical significance of the difference between scramble peptides and peptide mixture groups was calculated by student's t test, #p<0.05. […] Significant differences among the groups was calculated by One-way ANOVA, *p<0.05. Significance between scramble peptides and peptide mixture group was calculated by student's t test, #p<0.05. (G) Peptide D and the peptide mixture reduces TDP-43 phosphorylation and aggregation in SH-SY5Y cells following sodium arsenite treatment. […] TDP-43, phosphoTDP-43, PARP, and actin in the soluble and insoluble fraction were analyzed by western blotting. […]
# T1 sequence (Q921F2 whole entry): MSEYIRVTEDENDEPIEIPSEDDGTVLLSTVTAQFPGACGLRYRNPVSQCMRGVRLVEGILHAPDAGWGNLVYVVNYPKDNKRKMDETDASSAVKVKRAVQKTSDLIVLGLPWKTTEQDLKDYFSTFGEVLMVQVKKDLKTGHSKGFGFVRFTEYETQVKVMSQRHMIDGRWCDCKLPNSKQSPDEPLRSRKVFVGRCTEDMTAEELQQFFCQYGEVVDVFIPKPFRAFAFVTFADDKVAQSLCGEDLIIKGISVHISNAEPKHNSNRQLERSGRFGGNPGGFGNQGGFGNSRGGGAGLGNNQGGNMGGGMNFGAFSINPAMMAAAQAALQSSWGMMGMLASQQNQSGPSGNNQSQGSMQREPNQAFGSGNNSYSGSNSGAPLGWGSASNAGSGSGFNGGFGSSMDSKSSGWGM
# Chain of TDP-43 (Homo sapiens, UniProt Q13148) (Q13148 whole entry): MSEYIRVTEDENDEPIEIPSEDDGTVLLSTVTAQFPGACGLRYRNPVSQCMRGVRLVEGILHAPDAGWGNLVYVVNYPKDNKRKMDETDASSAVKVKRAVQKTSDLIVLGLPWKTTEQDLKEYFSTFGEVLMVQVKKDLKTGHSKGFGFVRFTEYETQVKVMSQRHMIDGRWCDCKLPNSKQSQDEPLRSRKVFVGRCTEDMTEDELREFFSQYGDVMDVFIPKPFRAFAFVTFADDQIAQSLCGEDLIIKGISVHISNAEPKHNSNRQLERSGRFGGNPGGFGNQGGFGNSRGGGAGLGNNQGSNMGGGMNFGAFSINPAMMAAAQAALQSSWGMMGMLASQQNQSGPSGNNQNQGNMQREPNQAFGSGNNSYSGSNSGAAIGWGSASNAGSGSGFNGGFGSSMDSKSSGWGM
substance,measurement,setting,value
"peptide D: candidate peptide from a CK-1δ binding region for TDP-43, truncated HIV-1 TAT domain added at the N-terminal (YGRKKRRQRRRGFSYDYVFDWNMLK)",insoluble aggregates of TDP-43 and phosphoTDP-43,TDP-43 [1]; 20 μM peptide,reduced
same,PARP cleavage product,TDP-43 [1]; treated vs untreated cells,reduced
same,TDP-43 and phosphoTDP-43 aggregation,TDP-43 [2],reduced TDP-43 and phosphoTDP-43 aggregation in a dose dependent manner
same,PARP cleavage caused by sodium arsenite,TDP-43 [3],less PARP cleavage
same,insoluble TDP-43 and phosphoTDP-43,TDP-43 [3],reducing
